We go through 1 molecule from patent US20250179208A1.

The assay concerns the target CD26 protein (recombinant human CD26) (human) (UniProt P27487). Description: BLI (Octet QKe), CD26 amine-coupled on AR2G sensor, antibody at 181.8 nM. (In BLI a coated tip is dipped into the sample, and binding shifts an interference pattern.)

B1: 17G108 (anti-CD26-CD3 chimeric bispecific antibody derived from No. 160 mouse antibody) (bispecific antibody)
chain: DIVMTQAAPSVPVTPGESVSISCRSSKSLLHSNGNTYLYWFLQRPGQSPQLLISQMSNLASGIPDRFSGSGSGTAFTLRISRVEAEDVGVYYCMQHLEYPFTFGSGTKLEIKGGGGSGGGGSGGGGSEVQLQQSGAELVKPGASVKLSCTASGFNIKDNYMNWVKQRPEQGLEWIGRIDPANGNPKYDPKFQGKATITADTSSNTAYLQLSSLTSEDTAVYYCTRWIYYYGSRYEWYFDVWGAGTTVTVSSGGGGSDVQLVQSGAEVKKPGASVKVSCKASGYTFTRYTMHWVRQAPGQGLEWIGYINPSRGYTNYADSVKGRFTITTDKSTSTAYMELSSLRSEDTATYYCARYYDDHYCLDYWGQGTTVTVSSGGGGSGGGGSGGGGSDIVLTQSPATLSLSPGERATLSCRASQSVSYMNWYQQKPGKAPKRWIYDTSKVASGVPARFSGSGSGTDYSLTINSLEAEDAATYYCQQWSSNPLTFGGGTKVEIK
Regarding B1, the Response was 0.0395.
